Key:
[1] = biological target: cellular RBX1 (Fig. S7) (human) (UniProt P62877)
[2] = biological target: CFP-RBX1-CUL1^CTD (human) (UniProt P62877); experiment: FRET or BRET
[3] = biological target: CFP-RBX1-CUL1^CTD~NEDD8 (UniProt P62877); experiment: FRET or BRET
[4] = biological target: CFP-RBX1^RING (human) (UniProt P62877); experiment: FRET or BRET
CFP-RBX1^RING (human), sequence (P62877 whole entry): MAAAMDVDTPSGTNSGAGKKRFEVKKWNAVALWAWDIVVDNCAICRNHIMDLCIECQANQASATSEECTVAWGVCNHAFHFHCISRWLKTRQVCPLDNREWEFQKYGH

GLMN-YFP, sequence (Q92990 whole entry): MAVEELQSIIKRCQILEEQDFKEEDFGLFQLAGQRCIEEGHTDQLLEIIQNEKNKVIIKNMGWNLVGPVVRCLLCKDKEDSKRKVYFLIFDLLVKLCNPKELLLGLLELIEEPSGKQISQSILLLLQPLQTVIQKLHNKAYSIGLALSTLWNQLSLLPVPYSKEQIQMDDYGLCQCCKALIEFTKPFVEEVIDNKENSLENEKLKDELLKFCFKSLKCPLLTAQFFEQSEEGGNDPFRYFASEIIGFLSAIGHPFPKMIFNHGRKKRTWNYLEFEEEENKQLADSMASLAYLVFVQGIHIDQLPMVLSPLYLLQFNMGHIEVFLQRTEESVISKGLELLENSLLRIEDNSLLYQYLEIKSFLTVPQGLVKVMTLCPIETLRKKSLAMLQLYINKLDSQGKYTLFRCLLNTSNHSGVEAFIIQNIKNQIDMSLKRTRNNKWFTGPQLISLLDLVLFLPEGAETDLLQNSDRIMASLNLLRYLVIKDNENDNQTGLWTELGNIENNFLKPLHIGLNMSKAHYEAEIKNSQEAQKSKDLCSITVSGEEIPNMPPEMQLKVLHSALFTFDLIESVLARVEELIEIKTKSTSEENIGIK
GLMN in cells (Fig. S7), sequence (Q92990 whole entry): as above
CFP-RBX1-CUL1^CTD (human), sequence (P62877 whole entry, chain 1 of 2): as the sequence (P62877 whole entry) above
CFP-RBX1-CUL1^CTD (human), sequence (Q13616 411-776, chain 2 of 2, further chain): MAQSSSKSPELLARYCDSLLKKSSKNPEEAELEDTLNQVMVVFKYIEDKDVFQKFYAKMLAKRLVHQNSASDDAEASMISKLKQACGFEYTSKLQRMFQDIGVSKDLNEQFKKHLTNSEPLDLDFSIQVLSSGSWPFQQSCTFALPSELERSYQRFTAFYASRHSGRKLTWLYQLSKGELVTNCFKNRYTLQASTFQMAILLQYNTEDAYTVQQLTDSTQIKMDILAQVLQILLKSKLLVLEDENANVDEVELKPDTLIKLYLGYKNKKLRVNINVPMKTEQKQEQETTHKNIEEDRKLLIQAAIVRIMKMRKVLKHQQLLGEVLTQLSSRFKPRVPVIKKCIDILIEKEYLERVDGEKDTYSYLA
CFP-RBX1-CUL1^CTD~NEDD8, sequence (P62877 whole entry, chain 1 of 3): as the sequence (P62877 whole entry) above
CFP-RBX1-CUL1^CTD~NEDD8, sequence (Q13616 411-776, chain 2 of 3, further chain): as the sequence (Q13616 411-776, chain 2 of 2, further chain) above
CFP-RBX1-CUL1^CTD~NEDD8, sequence (Q15843 1-76, chain 3 of 3, further chain): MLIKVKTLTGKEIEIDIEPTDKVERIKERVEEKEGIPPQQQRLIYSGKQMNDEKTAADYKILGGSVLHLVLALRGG
cellular RBX1 (Fig. S7) (human), sequence (P62877 whole entry): as the sequence (P62877 whole entry) above

percent of cellular RBX1 bound by GLMN [1] [percent]	Kd [2] [nM]	Kd [3] [nM]	Kd [4] [nM]	Substance
7	–	–	–	GLMN in cells (Fig. S7) (from UniProt Q92990 1-594) (natural protein)
–	36	28	45	GLMN-YFP (from UniProt Q92990 1-594) (natural protein)
